From US20210364527A1 (QUANTUM SI, published 2021) come the findings set out here.

Like-named read-outs stand apart in the source and are kept apart here.

What all share (assay): BLI heatmap
Assay [1] has as its target T1, F peptide FAKLDEESILKQK (XAKLDEESILKQK, X = F).
T1 construct: Immobilized on the biolayer interferometry sensor
T1 peptide: FAKLDEESILKQK

For assay [2], the target named is T2, IA peptide IAKLDEESILKQK (XAKLDEESILKQK, X = I).
T2 construct: Immobilized on the biolayer interferometry sensor
T2 peptide: IAKLDEESILKQK

Assay [3] deals with T3, LA peptide LAKLDEESILKQK (XAKLDEESILKQK, X = L).
T3 construct: Immobilized on the biolayer interferometry sensor
T3 peptide: LAKLDEESILKQK

In assay [4] the target is T4, VA peptide VAKLDEESILKQK (XAKLDEESILKQK, X = V).
T4 construct: Immobilized on the biolayer interferometry sensor
T4 peptide: VAKLDEESILKQK

The target in assay [5] is T5, W peptide WAKLDEESILKQK (XAKLDEESILKQK, X = W).
T5 construct: Immobilized on the biolayer interferometry sensor
T5 peptide: WAKLDEESILKQK

Assay [6] deals with T1, F peptide FAKLDEESILKQK (XAKLDEESILKQK, …).
The target of assay [7] is T2, IA peptide IAKLDEESILKQK ….
The target of assay [8] is T3, LA peptide LAKLDEESILKQK ….
The target of assay [9] is T4, VA peptide VAKLDEESILKQK ….

B1: PS392 (other)
chain: MSVEIIEKRSTVRKLAPRYRVLLHNDDFNPMEYVVQTLMATVPSLTQPQAVNVMMEAHTNGMGLVIVCALEHAEFYAETLNNHGLGSSIEPDD
As for B1, the binding result in assay [1] was “binds”; in assay [2], “no binding”; in [3], “no binding”; in assay [4] it was “no binding”.

B2: PS389 (other)
chain: MLNSAAFKAASASPVIAPERSGQVTQKPYPTYKVIVLNDDFNTFQHVHDCLVKYIPGMTSDRAWQLTHQVHNDGQAIVWVGPQEQAELYHQQLSRAGLTMAPIEAA
On to B2, for which the binding result in assay [5] is “no binding”; in assay [2], “no binding”; in assay [3], “binds”; in assay [4], “no binding”.

B3: PS556 (other)
chain: MGDSNTSVAEPGEVTVVTTKPAPKKAKPKRQPKYHVVLWNDDDHTYEYVILMMHELFGHPVEKGFQIAKTVDADGRAICLTTTKEHAELKRDQIHAYGKDELIARCRGSMSSTIEPEC
B3: the binding result in [6] is on record as “no binding”; in assay [7], “binds”; in [8] it was “binds”.

B4: PS414 (other)
chain: MQAAGNEPPDPQNPGDVGNGGDGGNQDGSNTGVVVKTRTRTRKPAMYKVLMLNDDYTPMEFVVHVLERFFQKNREEATRIMLHVHRRGVGVCGVYTYEVAETKVTQVMDLARQNQHPLQCTIEKE
In the case of B4, the binding result in assay [5] was “binds”; in assay [1] it was “binds”; in [2], “no binding”; in [4] it was “no binding”.

B5: PS547 (other)
chain: MGFPTDFRQSIEISTPLGSQQPRFSNASSEPALADPVLVINPRIQPRYHVILLNDDDHTYRYVIEMMLIVFGHPPEKGFLIAKEVDKAGRAICLTTSLEHAEFKQEQVHAYGADPYFGPKCKGSMTAVLEPAE
Regarding B5, the binding result in assay [6] and in [9] was “no binding” in each case.

B6: PS397 (other)
chain: MSDNEVAPKRKTRVKPKLERPRLYKVILVNDDYTPRDFVVMVLKAIFRMSEEAGYRVMMTAHKLGTSVVVVCARDIAETKAKEATDLGKEAGFPLMFTTEPEE
Regarding B6, the binding result in assay [5] is “binds”; in [1] it was “binds”; in assay [2], “no binding”; in [3] it was “no binding”; in assay [4], “no binding”.

B7: PS424 (other)
chain: MSVETIEKRSTTRKLAPQYRVLLHNDDYNSMEYVVQVLMTSVPSITQPQAVNIMMEAHNSGLALVITCAQEHAEFYCETLKGHGLSSTIEPD
B7: the binding result in [5] is given as “binds”; in assay [1] it was “binds”; in assay [2], “no binding”; in assay [3] it was “no binding”; in [4], “no binding”.

B8: PS388 (other)
chain: MVTTLSADVYGMATAPTVAPERSNQVVRKTYPNYKVIVLNDDFNTFQHVAECLMKYIPGMSSDRAWDLTNQVHYEGQAIVWVGPQEPAELYHQQLRRAGLTMAPLEAA
As for B8, the binding result in [5] is given as “no binding”; in assay [2] it was “no binding”; in assay [3], “binds”; in assay [4], “no binding”.

B9: PS559 (other)
chain: MNQAAISPNPDIKPNPSTHKKRASQRQPRYHVILWNDNDHTYHYVVTMLQKLFGHPPRTGIKMATEVDKKGKVIVLTTSREHAELKRDQIHAFGADKLIRRSKGAMAASIEPES
As to B9, the binding result in [7], in assay [8] and in assay [9] was “binds” each time.

B10: PS568 (other)
chain: MTTPSLPTRETEVEERTEVEPERLYHLVLLDDDQHSYQYVIEMLASIFGYGSEKAWTLARIVDTEGRAILETASHAQCERHQSQIHAYGADSRIPTSVGSMSAVIEEAGTPPQT
For the molecule B10, the binding result in assay [7], in [8] and in assay [9] was “binds” in each case.

B11: PS390 (other)
chain: MLSIAAVTEAPSKGVQTADPKTVRKPYPNYKVIVLNDDFNTFQHVSSCLLKYIPGMSEARAWELTNQVHFEGLAVVWVGPQEQAELYYAQLKNAGLTMAPPEPA
Consider B11, for which the binding result in assay [5] is “no binding”; in assay [1] it was “binds”; in [2], “no binding”; in assay [3] it was “binds”; in assay [4], “no binding”.

B12: PS555 (other)
chain: MADSAQTGVAEPIQETLRRRKLRDDRRPKRQPPYHVILWNDNDHTYAYVVVMLMQLFGYPAEKGYQLASEVDTQGRAVVLTTTKEHAELKRDQIHAYGKDGLIEKCKGSMWATIEPAPGE
For the molecule B12, the binding result in [7] is listed as “binds”; in assay [8] it was “binds”; in assay [9], “no binding”.

B13: PS565 (other)
chain: MSEFDHEHSGDTSVADPIVTTKTAPKPQKHAENETETRRQPPYNVIILNDEEHTFDYVIELLCKVFRHSLATAQELTWRIHLTGRAVVLTTHKELAELKRDQVLAYGPDPRMSVSKGPLDCFIEPAPGG
As for B13, the binding result in assay [6], in [7] and in assay [8] was “binds” each time.

B14: PS560 (other)
chain: MTETITTPAERTQTQAEPRSDRAWLWNVVLLDDDEHTYEYVIRMLHTLFGMPVERAFRLAEEVDARGRAVVLTTHKEHAELKRDQVHAFGKDALIASCAGSMSAVLEPAECGSDDED
As to B14, the binding result is given as “no binding” in assay [6], “binds” in [7] and “binds” in assay [8].

B15: PS423 (other)
chain: MAPTPAGAAVLDKQQQRRHKHASRYRVLLHNDPVNTMEYVVESLRQVVPQLSEQDAIAVMVEAHNTGVGLVIVCDIEPAEFYCEQLKTKGLTSSIEPED
B15: the binding result is listed as “binds” in assay [5]; “binds” in assay [1]; “no binding” in [2]; “no binding” in assay [3]; “no binding” in assay [4].

B16: PS404 (other)
chain: MPVSVTAPQTKTKTKPKVERPKLYKVILVNDDFTPREFVVRVLKAEFRMSEDQAAKVMMTAHQRGVCVVAVFTRDVAETKATRATDAGRAKGYPLLFTTEPEE
As to B16, the binding result in assay [5] was “binds”; in assay [1], “binds”; in [2] it was “no binding”; in assay [3], “no binding”; in assay [4], “no binding”.

B17: PS566 (other)
chain: MSSPSSLDDVQVSTSRAKPANETRTRKQPPYAVIVENDDHHTFLYVIEALMKVCGHAPEKGFVLAQQIHTQGKAMVWSGTLELAELKRDQLRGFGPDNYAPRPVTFPLGVTIEPLP
As for B17, the binding result in assay [6], in assay [7] and in assay [8] was “binds” in each case.

B18: PS548 (other)
chain: MSDTITLPEEKTDVRTKRQPPYHVILLNDDDHTYQYVIYMLQTLFGHPPETGFKMAQEVDKTGRVIVDTTSLERAELKRDQIHAFGPDPYIERCKGSMSAMIEPSE
Take B18: the binding result in [6] is recorded as “no binding”; in [7] it was “binds”; in [8], “binds”.

B19: PS398 (other)
chain: MPLKAQNRSIVGRRDEWPPPTTQSSSETKSESKRVSDTGADTKRKTKTVPKVEKPRLYKVILVNDDYTPREFVLVVLKAVFRMSEDQGYKVMITAHQKGSCVVAVYTRDIAETKAKEAVDLAKEIGFPLMFRTEPEE
Take B19: the binding result in assay [5] is on record as “binds”; in assay [1] it was “binds”; in [2], “no binding”; in assay [3], “no binding”; in assay [4], “no binding”.

B20: PS569 (other)
chain: MYSKNQIKIYCSEDDKGQTATPLLEKKPKFAPLYHVILWDDNTHTYEYVIKLLMSLFRMTFEKAYQHTLEVDKKGRTICITTHLEKAELKQEQISNFGPDILMQNSKGPMSATIEPAN
B20: the binding result in assay [6], in [7] and in assay [9] was “no binding” in each case.

B21: PS374 (other)
chain: MRWEDPLAAEPVTPGVAPVVEEETDAAVETPWRVILYDDDIHTFEEVILQLMKATGCTPEQGERHAWTVHTRGKDCVYQGDFFDCFRVQGVLREIQLVTEIEG
In the case of B21, the binding result was “binds” in [5], “binds” in assay [1], “no binding” in [2] and “no binding” in assay [4].
